Legend:
[1] = molecular target: T1, ASC-YFP stably expressed in HEK293 cells (UniProt Q9ULZ3 1-195); assay: confocal microscopy, HEK293-ASC-YFP cells transfected with PYD-CFP
T1 construct: also called YFP-ASC; HEK293-ASC-YFP; not shown: YFP
Description: Fluorescence intensities of the green (YFP-ASC) and red (PYD-CFP) channels were quantified along selected lines (white lines) and the percentage of ASC-YFP speckles per transfected cells assessed (panel b). c) 293T cells were transfected with expression plasmids encoding HAtagged ASC and CFP-tagged constructs as in panel a. The protein levels of the CFP-tagged PYD proteins in cell lysates were assessed by immunoblot analysis (INPUT, upper panels). Cell extracts were immunoprecipitated (IP) with anti-HA antibodies and immunoblotted (WB) with anti-HA antibody and anti-CFP antibody (lower panel). d) ASC was immunoprecipitated from THP-1 cell lysates primed with Sendai virus, whereas beads without anti-ASC antibody served as a negative control. The presence of ASC, PYHIN-2 and AIM2 was assessed by immunoblot analysis in the cell lysate and the ASC immunoprecipitation. The band above the AIM2 band in the ASC immunoprecipitation corresponds to the heavy chain of the anti-ASC antibody that is also detected by the secondary antibody. E) 293T cells were transfected with a multimerized NF-″B luciferase reporter construct together with fixed amounts of constructs as in (a) alone or together with increasing amounts of ASC. Cellular NF-″B activation was quantified in cell lysates 24 hours after transfection. Data of one representative experiment out of three (panels a, b, c and d) or two (panel e) are depicted.
To study the possibility that these PYHIN proteins associated with ASC in the cytosol, C-terminally tagged CFP PYD-domain fusions were generated. Of note, the putative nuclear localization sequences were predicted to localize to the […] of these molecules. Consistent with these predictions, all of the PYD-CFP fusion proteins were localized in the cytoplasm and formed large cytosolic aggregates in a portion of the cells (FIG. 6).

[2] = molecular target: HA-tagged ASC (human, UniProt Q9ULZ3 1-195, limits assumed); assay: cell-based or functional assay
Sequence of HA-tagged ASC (Q9ULZ3 whole entry): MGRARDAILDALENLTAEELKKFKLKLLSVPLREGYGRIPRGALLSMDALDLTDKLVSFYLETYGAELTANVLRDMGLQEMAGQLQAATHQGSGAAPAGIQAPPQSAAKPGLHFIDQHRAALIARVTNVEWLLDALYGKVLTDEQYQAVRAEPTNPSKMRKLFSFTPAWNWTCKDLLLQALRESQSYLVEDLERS

T1 sequence (Q9ULZ3 whole entry): as above

Row | Binder | binding result [1] | NF-kappaB luciferase reporter activation in 293T cells [2] [fold]
1 | PYHIN3-PYD (1-84) C-terminally tagged with CFP (other, human, UniProt P41218 1-84, looked up, range 1-84; also called MNDA PYD; not shown: C-terminal CFP from vector pEFBOS-C-term-CFP) MVNEYKKILLLKGFELMDDYHFTSIKSLLAYDLGLTTKMQEEYNRIKITDLMEKKFQGVACLDKLIELAKDMPSLKNLVNNLRK | no binding | 
2 | Full length human AIM2 (AS 1-356) C-terminally tagged with CFP (other, UniProt O14862 1-343, looked up, not shown: large carriers) MESKYKEILLLTGLDNITDEELDRFKFFLSDEFNIATGKLHTANRIQVATLMIQNAGAVSAVMKTIRIFQKLNYMLLAKRLQEEKEKVDKQYKSVTKPKPLSQAEMSPAASAAIRNDVAKQRAAPKVSPHVKPEQKQMVAQQESIREGFQKRCLPVMVLKAKKPFTFETQEGKQEMFHATVATEKEFFFVKVFNTLLKDKFIPKRIIIIARYYRHSGFLEVNSASRVLDAESDQKVNVPLNIIRKAGETPKINTLQTQPLGTIVNGLFVVQKVTEKKKNILFDLSDNTGKMEVLGVRNEDTMKCKEGDKVRLTFFTLSKNGEKLQLTSGVHSTIKVIKAKKKT |  | ≤ 60
3 | PYHIN1-PYD (1-84) C-terminally tagged with CFP (other, human, UniProt Q6K0P9 1-84, looked up, range 1-84; also called IFIX PYD; not shown: C-terminal CFP from vector pEFBOS-C-term-CFP) MANNYKKIVLLKGLEVINDYHFRIVKSLLSNDLKLNPKMKEEYDKIQIADLMEEKFPGDAGLGKLIEFFKEIPTLGDLAETLKR | no binding | 
4 | PYHIN2-PYD (1-84) C-terminally tagged with CFP (other, human, UniProt Q16666 1-84, looked up, range 1-84; also called IFI16 PYD; not shown: C-terminal CFP from vector pEFBOS-C-term-CFP) MGKKYKNIVLLKGLEVINDYHFRMVKSLLSNDLKLNLKMREEYDKIQIADLMEEKFRGDAGLGKLIKIFEDIPTLEDLAETLKK | no binding | 
